B1: WD repeat-containing protein slp1 (Schizosaccharomyces pombe (strain ATCC 38366 / 972)), P78972 (parent)
chain: MEIAGNSSTISPTFSTPTKKRNLVFPNSPITPLHQQALLGRNGRSSKRCSPKSSFIRNSPKIDVVNTDWSIPLCGSPRNKSRPASRSDRFIPSRPNTANAFVNSISSDVPFDYSESVAEACGFDLNTRVLAFKLDAPEAKKPVDLRTQHNRPQRPVVTPAKRRFNTTPERVLDAPGIIDDYYLNLLDWSNLNVVAVALERNVYVWNADSGSVSALAETDESTYVASVKWSHDGSFLSVGLGNGLVDIYDVESQTKLRTMAGHQARVGCLSWNRHVLSSGSRSGAIHHHDVRIANHQIGTLQGHSSEVCGLAWRSDGLQLASGGNDNVVQIWDARSSIPKFTKTNHNAAVKAVAWCPWQSNLLATGGGTMDKQIHFWNAATGARVNTVDAGSQVTSLIWSPHSKEIMSTHGFPDNNLSIWSYSSSGLTKQVDIPAHDTRVLYSALSPDGRILSTAASDENLKFWRVYDGDHVKRPIPITKTPSSSITIR
partner: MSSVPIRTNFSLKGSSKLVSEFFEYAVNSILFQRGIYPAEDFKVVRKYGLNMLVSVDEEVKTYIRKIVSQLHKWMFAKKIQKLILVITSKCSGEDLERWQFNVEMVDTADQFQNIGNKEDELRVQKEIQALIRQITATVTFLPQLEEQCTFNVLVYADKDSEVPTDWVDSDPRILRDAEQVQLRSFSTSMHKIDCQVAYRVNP

Variants of: B1
Conditions: with mad2_schpo mad2, O14417

effect of a mutation on the interaction | Variant
disrupting interaction | MEIAGNSSTISPTFSTPTKKRNLVFPNSPITPLHQQALLGRNGRSSKRCSPKSSFIRNSPKIDVVNTDWSIPLCGSPRNKSRPASRSDRFIPSRPNTANAFVNSISSDVPFDYSESVAEACGFDLNTRVLPYKLDAPEAKKPVDLRTQHNRPQRPVVTPAKRRFNTTPERVLDAPGIIDDYYLNLLDWSNLNVVAVALERNVYVWNADSGSVSALAETDESTYVASVKWSHDGSFLSVGLGNGLVDIYDVESQTKLRTMAGHQARVGCLSWNRHVLSSGSRSGAIHHHDVRIANHQIGTLQGHSSEVCGLAWRSDGLQLASGGNDNVVQIWDARSSIPKFTKTNHNAAVKAVAWCPWQSNLLATGGGTMDKQIHFWNAATGARVNTVDAGSQVTSLIWSPHSKEIMSTHGFPDNNLSIWSYSSSGLTKQVDIPAHDTRVLYSALSPDGRILSTAASDENLKFWRVYDGDHVKRPIPITKTPSSSITIR [A131P;F132Y]
